Experimental data: patent publication US12410245 (UNIVERSITY OF VIRGINIA PATENT FOUNDATION, dated 2025)
Several values for one entry are separate records, joined by “and”; a condition that tells them apart may be missing. Equal entries are not always repeated. Values belong to the molecule of their own block, whether it stands above or below them.

Experiments:
FnIII9-4G-10 [1] = target: FnIII9-4G-10 (UniProt P02751); test: SPR (Biacore 2000), integrin immobilized, Fn fragment as analyte
FnIII9*10 [2] = target: FnIII9*10 (UniProt P02751); test: as above
FnIII9-4G-10 [3] = target: FnIII9-4G-10 (UniProt P02751); test: SPR
FnIII9*10 [4] = target: FnIII9*10 (UniProt P02751); test: SPR
FnIII9-4G-10 [5] = target: FnIII9-4G-10 (UniProt P02751); test: phage ELISA on maleimide plates (HRP anti-M13); absorbance (450 nm minus 650 nm) on 4G divided by absorbance on 9*10
FnIII6-9 = target: T1, FnIII6-9 (UniProt P02751-1 1085-1446, limits assumed); test: SPR, Fn fragment immobilized; SPR, FnIII6-9 immobilized (other target: fragment with the 9th repeat)
T1 construct: domain: FnIII6-9; also called FnIII9 (FnIII6-9); Fn fragment including the 9th type III repeat

FnIII9-4G-10 [6] = target: FnIII9-4G-10 (UniProt P02751); test: SPR, ratio of the KD values (107 nM on FnIII9*10 against 16 nM on FnIII9-4G-10)
FnIII10-14 = target: T2, FnIII10-14 (UniProt P02751-8 1447-1901); test: SPR, Fn fragment immobilized; SPR, FnIII10-14 immobilized; fitted KD given in the text (FIGS. 9D and 9E)
T2 construct: domain: FnIII10-14; also called FnIII10 (FnIII10-14); Fn fragment including the 10th type III repeat
T2 sequence (P02751 other isoform, or with tags, fused parts or gaps limits assumed): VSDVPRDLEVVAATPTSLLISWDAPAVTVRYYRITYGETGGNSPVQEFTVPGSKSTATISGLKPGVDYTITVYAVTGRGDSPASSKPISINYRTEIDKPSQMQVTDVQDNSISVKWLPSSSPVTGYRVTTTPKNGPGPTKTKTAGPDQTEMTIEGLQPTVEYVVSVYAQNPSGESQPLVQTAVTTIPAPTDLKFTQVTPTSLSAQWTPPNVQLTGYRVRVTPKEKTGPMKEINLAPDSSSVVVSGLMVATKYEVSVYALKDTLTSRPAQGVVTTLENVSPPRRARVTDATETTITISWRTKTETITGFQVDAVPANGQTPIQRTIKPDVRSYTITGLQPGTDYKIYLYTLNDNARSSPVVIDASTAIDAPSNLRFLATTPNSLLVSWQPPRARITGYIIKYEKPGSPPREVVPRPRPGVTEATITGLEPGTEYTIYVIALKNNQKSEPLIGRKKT

FnIII9-4G-10, sequence (P02751 other isoform, or with tags, fused parts or gaps): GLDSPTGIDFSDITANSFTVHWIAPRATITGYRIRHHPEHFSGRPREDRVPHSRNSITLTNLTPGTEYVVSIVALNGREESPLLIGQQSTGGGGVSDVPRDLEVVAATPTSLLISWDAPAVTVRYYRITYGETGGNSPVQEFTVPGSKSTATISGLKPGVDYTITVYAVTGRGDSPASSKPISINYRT
T1 sequence (P02751 other isoform, or with tags, fused parts or gaps limits assumed): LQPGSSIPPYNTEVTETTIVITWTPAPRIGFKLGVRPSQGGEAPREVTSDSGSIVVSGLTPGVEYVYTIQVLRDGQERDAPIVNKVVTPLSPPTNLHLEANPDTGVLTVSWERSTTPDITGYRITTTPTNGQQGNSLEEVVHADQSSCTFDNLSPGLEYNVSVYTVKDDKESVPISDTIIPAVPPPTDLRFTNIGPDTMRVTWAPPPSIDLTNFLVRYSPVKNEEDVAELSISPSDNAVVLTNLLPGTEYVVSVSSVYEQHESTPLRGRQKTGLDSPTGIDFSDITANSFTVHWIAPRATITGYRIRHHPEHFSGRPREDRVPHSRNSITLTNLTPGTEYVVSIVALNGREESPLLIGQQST

Kd (FnIII9-4G-10 [1]): 0.04 µM
Kd (FnIII9*10 [2]): 0.04 µM
Molecule: integrin αvβ3 (R&D Systems) (from UniProt P06756 31-992; P05106 27-718) (receptor)

Kd (FnIII9-4G-10 [3]): 0.016 µM
Kd (FnIII9*10 [4]): 0.107 µM
4G/9*10 Ratio (FnIII9-4G-10 [5]): 1.21 and 1.02 and 1.06
Kd (FnIII6-9): 0.0348 µM
selectivity of binding (fold, against FnIII9-10 as reference) (FnIII9-4G-10 [6]): 10 fold
Kd (FnIII10-14): 5.1 µM
B1: H5 scFv (scFv)
scFv: EVQLLESGGGLVQPGGSLRLSCAASGFTFSSYAMSWVRQAPGKGLEWVSDIYDGGGTNYADSVKGRFTTSRDNSKNTLYLQMNSLRAEDTAVYYCAKTADNFDYWGQGTLVTVSSGGGGSGGGGSGGGGSTDIQMTQSPSSLSASVGDRVTITCRASQSISSYLNWYQQKPGKAPKLLIYAASTLQSGVPSRFSGSGSGTDFTLTISSLQPEDFATYYCQQANSAPTTFGQGTKVEIKRAAA
notes: Soluble scFv from E. coli, purified by Protein-A; also called clone H5; H5 antibody

4G/9*10 Ratio (FnIII9-4G-10 [5]): 2.53
B3: H5 Modified Clone R2G3 (scFv)
scFv: EVQLLESGGGLVQPGGSLRLSCAASGFTFSSYAMSWVRQASGKGLEWVSDIYDGGGTNYADSVKGRFTTSRDDSKNTLYLQMNSLRAEDTAVYYCAKTADNFDYWGQGTLVTVSSGGGGSGGGGSGGGGSTDIQMTQSPSSLSASVGDRVTITCRASQSISSYLNWYQQKPGKAPKLLIYAASTLQSGVPSRFSGSGSGTDFTLTISSLQPEDFATYYCQQANSAPTTFGQGTKVEIKRAAA

Further lines, the molecule ahead of its results:

B2: H5 Modified Clone R4B8 (scFv)
scFv: EVQLLESGGGLVQPGGSLRLSCAASGFTFSSYAMSWVRQAPGKGLEWVSDIYDGGGTNYADSVKGRFTTSRDNSKNTLYLQMNSLRAEDTAVYYCAKTADNFYYWGQGTLVTVSSGGGGSGGGGSGGGGSTDIQMTQSPSSLSASVGDRVTITCRASQSISSYLNWYQQKPGKAPKLLIYAASTLQSGVPSRFSGSGSGTDFTLTISSLQPEDFATYYCQQANSAPTTFGQGTKVEIKRAAA
4G/9*10 Ratio (FnIII9-4G-10 [5]): 1.49

B4: H5 Modified Clone R1F8/R1H8 (scFv)
scFv: EVQLLESGGGLVQPGGSLRLSCAASGFTFSSYAMSWVRQAPGKGLEWVSDIYDGGGTNYADSVKGRFTTSRDNSKNTLYLQMNSLRAEDTAVYYCTKTADNFDYWGQGTLVTVSSGGGGSGGGGSGGGGSTDIQMTQSPSSLSASVGDRVTITCRASQSISSYLNWYQQKPGKAPKLLIYAASTLQSGVPSRFSGSGSGTDFTLTISSLQPEDFATYYCQQANSAPTTFGQGTKVEIKRAAA
4G/9*10 Ratio (FnIII9-4G-10 [5]): 1.42 and 1.33

B5: H5 Modified Clone R1H6 (scFv)
scFv: EVQLLESGGGLVQPGGSLRLSCAASGFTFSSYAMSWVRQAPGKGLEWVSDIYDGGGTNYADSVKGRFTTSRDNSKNTMYLQMNSLRAEDTAVYYCAKTADNFDYWGQGTLVTVSSGGGGSGGGGSGGGGSTDIQMTQSPSSLSASVGDRVTITCRASQSISSYLNWYQQKPGKAPKLLIYAASTLQSGVPSRFSGSGSGTDFTLTISSLQPEDFATYYCQQANSAPTTFGQGTKVEIKRAAA
4G/9*10 Ratio (FnIII9-4G-10 [5]): 1.62
